Measured values from patent US20230348630A1 (BEIJING MABWORKS BIOTECH, published 2023).
Where a chain is given by its changes, count along the chain named. Names may count otherwise. Values belong to the binder of their own block, whether it stands above or below them.

Legend:
[1] = biological target: T1, CD3D&E protein (Cat #: CT038-H2508H, Sino Biological) (human, UniProt P04234 22-105; P07766 23-126); assay: ELISA, coated CD3D&E
T1 construct: Bought complex of the delta and epsilon chains; also called CD3D&E complex; human CD3D&E complex
T1 sequence (P04234 22-105, form in doubt, chain 1 of 2): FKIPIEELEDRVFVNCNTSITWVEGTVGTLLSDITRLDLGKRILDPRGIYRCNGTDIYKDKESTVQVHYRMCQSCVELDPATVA
T1 sequence (P07766 23-126, form in doubt, chain 2 of 2): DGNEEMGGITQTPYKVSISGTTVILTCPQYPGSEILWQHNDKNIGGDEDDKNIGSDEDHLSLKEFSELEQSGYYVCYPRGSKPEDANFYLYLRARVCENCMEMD

CD3 on Jurkat cells = biological target: T2, CD3 on Jurkat cells (UniProt P04234 22-171; P07766 23-207); assay: flow cytometry on Jurkat cells
T2 construct: whole, on cells
T2 sequence (P04234 22-171, chain 1 of 2): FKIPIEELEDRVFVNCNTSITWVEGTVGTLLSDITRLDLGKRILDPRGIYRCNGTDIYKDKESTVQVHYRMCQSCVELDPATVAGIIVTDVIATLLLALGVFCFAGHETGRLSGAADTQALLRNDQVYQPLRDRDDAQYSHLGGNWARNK
T2 sequence (P07766 23-207, chain 2 of 2): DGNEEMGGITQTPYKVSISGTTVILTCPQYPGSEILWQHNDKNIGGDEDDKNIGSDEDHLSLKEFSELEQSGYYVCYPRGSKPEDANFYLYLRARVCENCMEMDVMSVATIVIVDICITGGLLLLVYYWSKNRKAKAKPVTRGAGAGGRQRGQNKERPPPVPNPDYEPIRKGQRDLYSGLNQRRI
Description: Jurkat cells were collected, centrifuged at 300 g for 5 min, and suspended in PBS. After another centrifugation, the cells were suspended in 2% FBS-PBS at the cell density of 3×10⁶/ml, and […] were plated onto a U-bottom plate. The plate was added with 50 μl serially diluted anti-CD3 antibodies of the disclosure in 2% FBS-PBS (4-fold dilution, starting at 20 μg/ml), and incubated at room temperature for 1 h. The plate was washed with 2% FBS-PBS for three times, added with 50 μl PE-labeled goat-anti-human IgG (H+L) (1: 500), and incubated at room temperature for 45 min. The plate was washed with 2% FBS-PBS again for three times, and added with 150 μl 2% FBS-PBS to suspend the cells. The plate was measured for cell fluorescence using a cytometry, and the data was processed with FlowJo and analyzed with GraphPad.

[2] = biological target: T1, CD3D&E protein (Cat #: CT038-H2508H, …); assay: SPR (BIAcore 8K), antibody captured by anti-human Fc, CD3D&E as analyte
Description: Briefly, the mouse anti-human Fc antibodies were coupled to a CM5 biosensor chip. The anti-CD3 antibodies of the disclosure in the HBS-EP buffer (Cat #: BR-1006-69, GE Life Sciences) at the concentration of 1 μg/ml was flowed through the chip, where about 100 RU of the antibodies were captured by the mouse anti-human Fc antibodies. Serially diluted CD3D&E molecules (Cat #: CT038-H2508H, Sino Biological) in the HBS-EP buffer (Cat #: BR-1006-69, GE Life Sciences) (2-fold dilution starting at 20 μg/ml) were respectively flowed through the chip. Chip regeneration was performed with 3 M MgCl₂.

EC50 [1]: 0.00816 µg/mL
EC50 (CD3 on Jurkat cells): 0.0411 µg/mL
Kd [2]: 30 nM
B1: anti-CD3D&E antibody D8E5, full-length human IgG1 (L234A/L235A/N297A)/kappa (antibody, V domains shown)
VH: EVQLVESGGGLVQPGRSLRLSCAASGFTFDSYSMHWVRQAPGKGLEWVSGISWNSGSLGYADSVKGRFTISRDNAKKSLYLQMNSLRAEDTALYYCAKDRSGYGHYYYGMDVWGQGTTVTVAS
VL: EIVMTQSPATLSVSPGERATLSCRASRSVSLNVAWYQQKPGQAPRLLIYGASTKYTGIPARFSGSGSGTEFTLTISSLQSEDFAVYYCQQYINWPLTFGGGTKVEIKR

EC50 [1]: 0.00402 µg/mL
EC50 (CD3 on Jurkat cells): 0.119 µg/mL
Kd [2]: 6.54 nM
B2: anti-CD3D&E antibody 7-1A12, full-length human IgG1 (L234A/L235A/N297A)/kappa (antibody, V domains shown)
VH: B1 VH with D30S, S31D, S33T, S55T, S57T, L58I, R100N, Y108F
VL: B1 VL with R27Q, L31R, K54R, Y55Q, Q90S, T97Q
